Publication PMC10201449, “Structures, activity and mechanism of the Type IIS restriction endonuclease PaqCI”
Values belong to the molecule of their own block, whether it stands above or below them.

Experiments:
[1] = target: PaqCI, Type IIS restriction endonuclease of Paucibacter aquatile (Paucibacter aquatile); assay: cryo-EM structure; DNA-free PaqCI, 0.1-0.4 mg/ml; 3.0 Å global resolution map, no symmetry imposed; crystallographic model docked
[2] = target: PaqCI, Type IIS restriction endonuclease of Paucibacter aquatile (Paucibacter aquatile); assay: SEC; DNA-free PaqCI on Superdex 200 10/300 GL; 20 mM HEPES pH 7.5, 150 mM sodium chloride, 5 mM magnesium chloride, 1 mM DTT
[3] = target: PaqCI, Type IIS restriction endonuclease of Paucibacter aquatile (Paucibacter aquatile); assay: cryo-EM structure; PaqCI with 50 bp DNA duplex (1:1.2 molar ratio) in 10 mM calcium chloride, SEC peak in 30 mM BisTris pH 6.5, 100 mM sodium chloride; 3.15 Å map, no symmetry imposed
[4] = target: PaqCI, Type IIS restriction endonuclease of Paucibacter aquatile (Paucibacter aquatile); assay: crystal structure; DNA-free apo-enzyme; 20 to 25% PEG 3350, 0.2 M magnesium chloride, 0.1 M Bis-Tris pH 5.5; 2.5 Å; two subunits in the asymmetric unit, tetramer by a crystallographic two-fold axis
[5] = target: T1, PaqCI Type IIS restriction endonuclease (Paucibacter aquatile, UniProt A0A2N8KYF9 1-510); assay: SEC co-elution; 10 mM Ca2+; 1:1.2 protein monomer:DNA; SEC/cryo-EM: 30 mM BisTris pH 6.5, 100 mM NaCl; complex formed with 10 mM CaCl2; temperature not stated; details: protein: recombinant; tags: none (untagged); chain copies: 4; 50 complementary bp; four duplexes per tetramer
T1 sequence: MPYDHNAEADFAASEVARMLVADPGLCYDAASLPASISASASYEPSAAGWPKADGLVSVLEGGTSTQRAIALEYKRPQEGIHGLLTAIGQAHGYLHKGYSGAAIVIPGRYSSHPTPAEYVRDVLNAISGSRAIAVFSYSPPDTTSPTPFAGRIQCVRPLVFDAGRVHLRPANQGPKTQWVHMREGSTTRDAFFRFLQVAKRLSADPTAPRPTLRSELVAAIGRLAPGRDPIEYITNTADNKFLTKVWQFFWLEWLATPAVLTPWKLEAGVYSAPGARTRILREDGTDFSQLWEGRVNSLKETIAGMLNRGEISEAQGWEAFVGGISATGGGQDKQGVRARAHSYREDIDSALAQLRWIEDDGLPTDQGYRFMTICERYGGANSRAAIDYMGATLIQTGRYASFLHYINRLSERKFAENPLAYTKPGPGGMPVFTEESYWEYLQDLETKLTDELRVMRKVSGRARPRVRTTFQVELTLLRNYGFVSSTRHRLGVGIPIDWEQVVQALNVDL

stoichiometry N [1]: 4
stoichiometry N [2]: 4
stoichiometry N [3]: 4
stoichiometry N [4]: 4
Molecule: PaqCI, Type IIS restriction endonuclease of Paucibacter aquatile (enzyme)

B1: 50 bp PaqCI target duplex (dsDNA)
DNA 1: CCAGTCGGGATCAGCTCTCTTTCTTCCCACCTGCGCCACGCGAGGTACTC
DNA 2: GAGTACCTCGCGTGGCGCAGGTGGGAAGAAAGAGAGCTGATCCCGACTGG
binding result [5]: binds
